# Measured values reported in article PMC8136917, “The glycosyltransferase UGT76B1 modulates N-hydroxy-pipecolic acid homeostasis and plant immunity” (The Plant Cell, 2021).
# Experiments:
# [1] = substrate: O=C(O)c1ccccc1O; assay: UPLC-nanoESI-QTRAP-MS of product SAG; Hill regression; format: biochemical, Arabidopsis thaliana; conditions: UDP-glucose co-substrate (2 mM in methods); 5 min at 25°C (Figure 6 legend; methods say 15 min at 30°C)
# [2] = substrate: O=C(O)[C@@H]1CCCCN1O; assay: UPLC-nanoESI-QTRAP-MS of product NHP-OGlc; Hill regression; format: biochemical, Arabidopsis thaliana; conditions: UDP-glucose co-substrate (2 mM in methods); 5 min at 25°C (Figure 6 legend; methods say 15 min at 30°C)
protein,measurement,setting,value
UGT76B1 (Arabidopsis thaliana) (protein) METRETKPVIFLFPFPLQGHLNPMFQLANIFFNRGFSITVIHTEFNSPNSSNFPHFTFVSIPDSLSEPESYPDVIEILHDLNSKCVAPFGDCLKKLISEEPTAACVIVDALWYFTHDLTEKFNFPRIVLRTVNLSAFVAFSKFHVLREKGYLSLQETKADSPVPELPYLRMKDLPWFQTEDPRSGDKLQIGVMKSLKSSSGIIFNAIEDLETDQLDEARIEFPVPLFCIGPFHRYVSASSSSLLAHDMTCLSWLDKQATNSVIYASLGSIASIDESEFLEIAWGLRNSNQPFLWVVRPGLIHGKEWIEILPKGFIENLEGRGKIVKWAPQPEVLAHRATGGFLTHCGWNSTLEGICEAIPMICRPSFGDQRVNARYINDVWKIGLHLENKVERLVIENAVRTLMTSSEGEEIRKRIMPMKETVEQCLKLGGSSFRNLENLIAYILSF,Km,[1],75 ± 2 µM
same,Km,[2],191 ± 14 µM
